Source: article PMC12360793

What was measured:
[1] = target: biotinylated monomeric MOW15–22 RBD (MOW15–22 (bat MERSr-CoV sampled in Pipistrellus nathusii)); assay: BLI
[2] = target: dimeric P.dav ACE2 ectodomain (cryo-EM sample with MOW15–22 RBD) (P.dav (a Pteronotus bat)); assay: cryo-EM structure
[3] = target: biotinylated monomeric PnNL2018B RBD (PnNL2018B (bat MERSr-CoV sampled in Pipistrellus nathusii)); assay: BLI

Substance | Kd [1] [µM] | stoichiometry N (RBD per ACE2 dimer) [2] | Kd [3] [µM]
dimeric P.dav ACE2 ectodomain (residues 17–728, avi-His8) (from UniProt Q56H28 17-728) (domain or fragment) | 0.00638 | – | –
MOW15–22 RBD (cryo-EM sample with P.dav ACE2) (from UniProt Q56H28 360-611) (domain or fragment) | – | < 1 | –
dimeric P.nat ACE2 ectodomain (residues 17–729, avi-His8) (domain or fragment) | 0.0128 | – | 0.897
monomeric P.dav ACE2 ectodomain (residues 17–613, avi-His8) (from UniProt Q56H28 17-613) (domain or fragment) | 1.07 | – | –
monomeric P.nat ACE2 ectodomain (residues 17–614, avi-His8) (domain or fragment) | 1.45 | – | –
